Reference: US20250127915A1 (SHANGHAI JUNSHI BIOSCIENCES, published 2025)
Like-named read-outs stand apart in the source and are kept apart here.

Key:
human CLDN-18.2 [1] = molecular target: T1, human CLDN-18.2 (human, UniProt P56856 1-261); experiment: cell-based or functional assay
human CLDN-18.2 [2] = molecular target: T1, human CLDN-18.2; experiment: cell-based or functional assay; remark: listed apart in the source
human CLDN-18.2 [3] = molecular target: T1, human CLDN-18.2; experiment: flow cytometry on NUGC4-CLDN-18.2 cells overexpressing human CLDN-18.2, 4 °C 30 min, fluorescent secondary antibody, MFI-PE
Protocol: Finally, the fluorescence intensity was detected by BD CantoII flow cytometer. […] The antibody dose-dependent binding curve was fitted by GraphPad (FIGS. 1a-1d) and EC50 was calculated. The positive controls were the corresponding monoclonal antibodies, and the negative control was anti-KLH IgG1.

human CLDN-18.2 [4] = molecular target: T1, human CLDN-18.2; experiment: cell-based or functional assay; remark: listed apart in the source

Binder	IC50 of inhibition of NUGC4-CLDN-18.2 cells proliferation (Cell titer Glo, 48 h) (human CLDN-18.2 [1]) [µg/mL]	EC50 of endocytosis (MFI-APC of CypHer5E-labelled conjugate in NUGC4-CLDN-18.2 cells, 37 °C 4 h, FACS) (human CLDN-18.2 [2]) [µg/mL]	EC50 (human CLDN-18.2 [3]) [µg/mL]	EC50 of endocytosis (MFI-APC of CypHer5E-labelled conjugate in NUGC4-CLDN-18.2 cells, 37 °C 4 h, FACS) (human CLDN-18.2 [4]) [µg/mL]	EC50 of endocytosis (MFI-APC of CypHer5E-labelled antibody in NUGC4-CLDN-18.2 cells, 37 °C 4 h, FACS) (human CLDN-18.2 [4]) [µg/mL]
ADC-4-MMAE (antibody, human IgG1, kappa, V domains shown, MC-VC-PAB-MMAE (vc-MMAE) coupled after TCEP reduction of the antibody; positions not given; DAR 4.55, also called JS107-4-MMAE) VH: EVQLVESGGGLVQPGGSLRLSCAASGFTLNNFGMHWVRQAPGKGLEWVSSISSGSGTIYYADSVKGRFTISRDNPKNSLYLQMNSLRAEDTAVYYCARAYYGNGFSFWGQGTLVTVSS VL: DIVMTQSPDSLAVSLGERATINCKSSQSLLNSGNQKNYLTWYQQKPGQPPKLLIYWASTRESGVPDRFSGSGSGTDFTLTISSLQAEDVAVYYCQNVYSYPLTFGQGTKLEIKR	0.011	2.67	0.495	–	–
ADC-4-MMAF (antibody, human IgG1, kappa, V domains shown, MC-MMAF coupled after TCEP reduction of the antibody; positions not given; DAR 3.85, also called JS107-4-MMAF) VH: EVQLVESGGGLVQPGGSLRLSCAASGFTLNNFGMHWVRQAPGKGLEWVSSISSGSGTIYYADSVKGRFTISRDNPKNSLYLQMNSLRAEDTAVYYCARAYYGNGFSFWGQGTLVTVSS VL: DIVMTQSPDSLAVSLGERATINCKSSQSLLNSGNQKNYLTWYQQKPGQPPKLLIYWASTRESGVPDRFSGSGSGTDFTLTISSLQAEDVAVYYCQNVYSYPLTFGQGTKLEIKR	0.00936	1.61	1.21	–	–
ADC-3-MMAE (antibody, V domains shown, MC-VC-PAB-MMAE (vc-MMAE) coupled after TCEP reduction of the antibody; positions not given; DAR 3.97, also called JS107-3-MMAE) VH: QIQLVQSGSELKKPGESVKVSCKASGYTFTNYGMNWVRQAPGQGLEWMGWINTYTGESTYADGFTGRFVFSSDTSARTAYLQISSLKAEDTAVYFCATLGYGNSLAYWGQGTLVTVSS VL: DIVMTQSPDSLAVSLGERATINCKSSQSLLNSGNQRNYLTWYQQKPGQPPKLLIYWASTRESGVPDRFSGSGSGTDFTLTISSLQAEDVAVYYCQNNYFYPFTFGQGTKLEIKR	0.0127	0.937	2.96	–	–
ADC-5-MMAE (antibody, human IgG1, kappa, V domains shown, MC-VC-PAB-MMAE (vc-MMAE) coupled after TCEP reduction of the antibody; positions not given; DAR 4.1, also called JS107-5-MMAE) VH: EVQLVESGGGLVQPGGSLRLSCAASGFTLNNFGMHWVRQAPGKGLEWVSSISSGSGTIYYADSVKGRFTISRDNPKNSLYLQMNSLRAEDTAVYYCARAYYGNGFSFWGQGTLVTVSS VL: DIVMTQSPDSLAVSLGERATINCKSSQSLLNSGNQKNYLTWYQQKPGQPPKLLIYWASTRESGVPDRFSGSGSGTDFTLTISSLQAEDVAVYYCQNVYSYPLTFGQGTKLEIKR	–	–	0.23	21.8	–
JS012-Chi2-hu2-v3-2a (antibody, human IgG1, kappa, V domains shown, also called JS107-5) VH: EVQLVESGGGLVQPGGSLRLSCAASGFTLNNFGMHWVRQAPGKGLEWVSSISSGSGTIYYADSVKGRFTISRDNPKNSLYLQMNSLRAEDTAVYYCARAYYGNGFSFWGQGTLVTVSS VL: DIVMTQSPDSLAVSLGERATINCKSSQSLLNSGNQKNYLTWYQQKPGQPPKLLIYWASTRESGVPDRFSGSGSGTDFTLTISSLQAEDVAVYYCQNVYSYPLTFGQGTKLEIKR	–	–	0.347	–	58.8
JS012-Chi2-hu2-v3-2 (antibody, human IgG1, kappa, V domains shown, also called JS107-4) VH: EVQLVESGGGLVQPGGSLRLSCAASGFTLNNFGMHWVRQAPGKGLEWVSSISSGSGTIYYADSVKGRFTISRDNPKNSLYLQMNSLRAEDTAVYYCARAYYGNGFSFWGQGTLVTVSS VL: DIVMTQSPDSLAVSLGERATINCKSSQSLLNSGNQKNYLTWYQQKPGQPPKLLIYWASTRESGVPDRFSGSGSGTDFTLTISSLQAEDVAVYYCQNVYSYPLTFGQGTKLEIKR	–	–	1.65	–	–
JS012-Chi9-hu7 (antibody, human IgG1, kappa, V domains shown, also called JS107-3; JS012-chi9-hu07) VH: QIQLVQSGSELKKPGESVKVSCKASGYTFTNYGMNWVRQAPGQGLEWMGWINTYTGESTYADGFTGRFVFSSDTSARTAYLQISSLKAEDTAVYFCATLGYGNSLAYWGQGTLVTVSS VL: DIVMTQSPDSLAVSLGERATINCKSSQSLLNSGNQRNYLTWYQQKPGQPPKLLIYWASTRESGVPDRFSGSGSGTDFTLTISSLQAEDVAVYYCQNNYFYPFTFGQGTKLEIKR	–	–	3.76	–	–
